Drawing on US20220332795A1, this text covers RLU for 15 molecules.

First the molecules themselves.
B1: SEQ ID NO 81 (designed binder, not shown: small tags and cut ends)
chain: MLPAPKNLVVSRVTEDSARLSWQGVARAFDSFLITYVELRHLGEAIVLTVPGSERSYDLTGLKPGTEYPVWIQGVKGGSPSAPLSAEFTT
B2: SEQ ID NO 94 (designed binder, not shown: small tags and cut ends)
chain: MLPAPKNLVVSEVTEDSARLSWQGVARAFDSFLITYREQIFAGEVIVLTVPGSERSYDLTGLKPGTEYPVWIQGVKGGSPSAPLSAIFTT
B3: SEQ ID NO 84 (designed binder, not shown: small tags and cut ends)
chain: MLPAPKNLVVSRVTEDSARLSWQGVARAFDSFSILYLELTPKGEAIVLTVPGSERSYDLTGLKPGTEYPVWIQGVKGGSPSAPLSAEFTT
B4: SEQ ID NO 89 (designed binder, not shown: small tags and cut ends)
chain: MLPAPENLVVSRVTEDSARLSWTAPDAAFDSFWIEYYEGVIQGEAIVLTVPGSERSYDLTGLKPGTEYFVAIWGVKGGKWSVPLSAIFTT
B5: SEQ ID NO 90 (designed binder, not shown: small tags and cut ends)
chain: MLPAPKNLVVSRVTEDSARLSWQGVARAFDSFLITYREQIFAGEVIVLTVPGSERSYDLTGLKPGTEYPVWIQGVKGGSPSAEFTT
B6: SEQ ID NO 88 (designed binder, not shown: small tags and cut ends)
chain: MLPAPKNLVVSRVTEDSARLSWTAPDAAFDSFPIKYREVLRCGEAIVLTVPGSERSYDLTGLKPGTEYTVPITGVKGGFGSSPLSAIFTT
B7: SEQ ID NO 79 (designed binder, not shown: small tags and cut ends)
chain: MLPAPKNLVVSRVTEDSARLSWTAPDAAFDSFVIEYTERFWSGEAIVLTVPGSERSYDLTGLKPGTEYSVPIDGVKGGQCSTPLSAIFTT
B8: SEQ ID NO 87 (designed binder, not shown: small tags and cut ends)
chain: MLPAPKNLVVSRVTEDSARLSWTAPDAAFDSFAIEYTEFLYSGEAIVLTVPGSERSYDLTGLKPGTEYGVPINGVKGGFVSPPLSAIVTT
B9: SEQ ID NO 93 (designed binder, not shown: small tags and cut ends)
chain: MLPAPKNLVVSRVTEDSARLSWTAPDAAFDSFAIEYYEPVPAGEAIYLDVPGSERSYDLTGLKPGTEYDVTIYGVKGGYYSHPLFASFTT
B10: SEQ ID NO 10 (designed binder, not shown: small tags and cut ends)
chain: MLPAPKNLVVSRVTEDSARLSWTAPDAAFDSFKIAYIETATRGEAIVLTVPGSERSYDLTGLKPGTEYVVPIPGVKGGNTSSPLSAIFTT
B11: SEQ ID NO 85 (designed binder, not shown: small tags and cut ends)
chain: MLPAPKNLVVSRVTEDSARLSWTAPDAAFDSFIIEYFEPIPIGEAIVLTVPGSERSYDLTGLKPGTEYAVNIYGVKGGYLSHPLSAIFTT
B12: SEQ ID NO 82 (designed binder, not shown: small tags and cut ends)
chain: MLPAPKNLVVSRVTEDSARLSWTAPDAAFDSFLIPYAETSPSGEAIVLTVPGSERSYDLTGLKPGTEYSVLIHGVKGGDYSSPLSAIFTT
B13: SEQ ID NO 12 (designed binder, not shown: small tags and cut ends)
chain: MLPAPKNLVVSRVTEDSARLSWTAPDAAFDSFFIPYAEPSPTGEAIVLTVPGSERSYDLTGLKPGTEYSVLIHGVKGGHLSDPLSAISTT
B14: SEQ ID NO 83 (designed binder, not shown: small tags and cut ends)
chain: MLPAPKNLVVSRVTEDSARLSWTAPDAAFDSFPIAYAEPRPDGEAIVLTVPGSERSYDLTGLKPGTEYSVLIHGVKGGLLSSPLSAISTT
B15: SEQ ID NO 80 (designed binder, not shown: small tags and cut ends)
chain: MLPAPKNLVVSRVTEDSARLSWTAPDAAFDSFWIDYEEEGVIGEAIYLHVPGSERSYDLTGLKPGTEYVVKIHGVKGGHPSHPLVAVFTT

Chain of human serum albumin (human) (P02768 25-609 limits assumed): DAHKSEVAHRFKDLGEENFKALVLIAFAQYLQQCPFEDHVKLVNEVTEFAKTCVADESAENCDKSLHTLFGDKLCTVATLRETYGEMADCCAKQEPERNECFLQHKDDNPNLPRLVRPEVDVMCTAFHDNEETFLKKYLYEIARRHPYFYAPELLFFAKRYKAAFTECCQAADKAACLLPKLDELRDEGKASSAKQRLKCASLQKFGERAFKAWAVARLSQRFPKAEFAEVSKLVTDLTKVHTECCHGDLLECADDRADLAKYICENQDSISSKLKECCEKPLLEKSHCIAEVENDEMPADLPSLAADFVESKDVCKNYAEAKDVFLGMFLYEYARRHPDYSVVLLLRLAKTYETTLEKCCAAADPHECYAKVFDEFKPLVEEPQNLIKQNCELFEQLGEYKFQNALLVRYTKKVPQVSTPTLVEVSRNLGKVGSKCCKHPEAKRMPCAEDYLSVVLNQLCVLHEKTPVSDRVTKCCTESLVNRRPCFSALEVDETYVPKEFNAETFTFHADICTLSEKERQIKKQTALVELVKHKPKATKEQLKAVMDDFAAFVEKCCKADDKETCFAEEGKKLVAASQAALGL

This test addresses human serum albumin (human) (UniProt P02768). Kind of test: primary solution ELISA screen.
In the case of B1, the RLU is 9850 RLU.
In turn, B2 showed an RLU of 87200 RLU.
To B3 belongs 127000 RLU; to B4, 6500 RLU.
Molecule B5 returned an RLU of 12400 RLU.
Consider B6, for which the RLU came to 24200 RLU.
In turn, B7 registered an RLU of 6000 RLU.
To B8 belongs 3650 RLU; to B9, 4750 RLU.
In turn, B10 showed an RLU of 29300 RLU.
For the molecule B11, the RLU came out at 6350 RLU.
In turn, B12 gave an RLU of 14800 RLU.
For the molecule B13, the RLU stood at 49000 RLU.
For B14, the RLU turned out to be 111000 RLU.
B15 displayed an RLU of 33600 RLU.
